Source: US20150072933A1, “NOVEL SEQUENCES FOR THE CONTROL OF REPRODUCTION IN FISH” (Yissum Research Development Company of the Hebrew …, priority 2011, published 2015)
*1 amine or outer side, *2 acyl side, *3 side chain or, on linkers, in order; H or OH if unused. Where no end group is shown, it is not given here. [ ]: non-standard residue; d: D form. NMeF = CN[C@@H](Cc1ccccc1)C(=O)O; Suc = O=C(CCC(=O)[*:2])[*:1]; NMeV = CN[C@H](C(=O)O)C(C)C

B1: Zebrafish Tac3a peptide, neurokinin Ba (EMHDIFVGLM-NH2) (peptide)
peptide: EMHDIFVGLM-NH2
B2: Senktide (Succ-Asp-Phe-N(Me)Phe-Gly-Leu-Met-NH2) (peptide)
peptide: Suc-DF[NMeF]GLM-NH2
B3: NKBa-analog (Succ-Asp-Ile-Phe-N(Me)Val-Gly-Leu-Met-NH2) (peptide)
peptide: Suc-DIF[NMeV]GLM-NH2
SMILES: CC[C@H](C)[C@H](NC(=O)[C@H](CC(=O)O)NC(=O)CCC(=O)O)C(=O)N[C@@H](Cc1ccccc1)C(=O)N(C)[C@H](C(=O)NCC(=O)N[C@@H](CC(C)C)C(=O)N[C@@H](CCSC)C(N)=O)C(C)C
B4: human NKB (neurokinin B) (peptide)
peptide: DMHDFFVGLM-NH2
B5: NKF-analog (Succ-Asp-Ser-Phe-N(Me)Val-Gly-Leu-Met-NH2) (peptide)
peptide: XDSFXGLM
modifications: N-terminal succinyl (Succ) on Asp; N(Me)Val; C-terminal amide (-NH2)
B6: NKBb-analog (Succ-Asp-Phe-N(Me)Val-Gly-Leu-Met-NH2) (peptide)
peptide: Suc-DF[NMeV]GLM-NH2

Experiments:
[1] = tested on: zfTac3ra; assay: Receptor transactivation assay, CRE-Luc reporter (PKA activation), COS-7 cells expressing zfTac3ra; format: cell-based, zebrafish; conditions: mean ± SEM
Procedure: (§1) In order to study the signaling pathways of the novel zebrafish NKBs, the entire coding regions of zftac3ra (denoted by SEQ ID NO:6) or zftac3rb (denoted by SEQ ID NO:7), or the cDNA clone for human NK3R (obtained from the Missouri S&T cDNA Resource Center, were inserted into pcDNA3.1 (Invitrogen). The luciferase assay was conducted according to Biran et al., 2008 [4] COS-7 cells were grown in DMEM supplemented with 10% FBS, 1% glutamine, 100 U/ml penicillin, and […] streptomycin (Biological Industries) under 5% CO2 until confluent. Cotransfection of either pc-zftac3ra, pc-zftac3rb or pc-Htac3r (at 3 μg/plate), a reporter plasmid (at 2 μg/plate), and pCMV-β-galactosidase (at 1 μg/plate) was carried out with FuGENE 6.0 reagent (Roche). The cells were serum starved for 36 h, stimulated with vehicle or various concentrations of either human (Sigma) or zebrafish NKBs for 6 h, and then harvested and analyzed. Lysates prepared from the harvested cells were assayed for both luciferase activity and β-galactosidase activity, which was used as an internal standard to normalize the luciferase activity directed by the test plasmid. Transfection experiments were performed in triplicate with three independently isolated sets. Protein structure prediction of zebrafish NKBa, NKBb or NKF were performed on I-Tasser servers.
(§2) The response, binding selectivity and signal transduction pathways of the novel tachykinin receptors to their agonists were evaluated by functional expression analysis, using COS-7 cells.
(§3) The NKB analogues (i.e. the NKBa-analog, NKBb-analog and NKF-analog, as denoted by SEQ ID NO. 44-46) were first analyzed in comparison to their native forms in a transactivation assay, using reporter genes for specific signal transduction pathways. To validate the specificity of the serum-responsive element (SRE)-Luc and cAMP-responsive element (CRE)-Luc reporter systems, specific activators for PLC/PKC and AC/PKA signaling pathways were used in control experiments.
(§4) Thus, the ability of the three novel piscine peptides (namely, NKBa, NKBb and NKF, denoted by SEQ ID NO.40, 41 and 42), as well as the ability of the three analogous agonistic peptides, namely, NKBa-analog, NKBb-analog and NKF-analog, to differentially activate the different tac3 receptors, using SRE as a reporter gene that follows PKC activation and CRE as a reporter gene for the PKA pathway, was tested. Human NK3R (human NKB receptor) and human NKB served as controls.

[2] = tested on: zfTac3rb; assay: Receptor transactivation assay, CRE-Luc reporter (PKA activation), COS-7 cells expressing zfTac3rb; format: cell-based, zebrafish; conditions: mean ± SEM
Procedure: as §1, §2, §3, §4

[3] = tested on: zfTac3ra; assay: Receptor transactivation assay, SRE-Luc reporter (PKC activation), COS-7 cells expressing zfTac3ra; format: cell-based, zebrafish; conditions: mean ± SEM
Procedure: as §1, §2, §3, §4

[4] = tested on: zfTac3rb; assay: Receptor transactivation assay, SRE-Luc reporter (PKC activation), COS-7 cells expressing zfTac3rb; format: cell-based, zebrafish; conditions: mean ± SEM
Procedure: as §1, §2, §3, §4

[5] = target: T1, zebrafish Tac3rb (tac3 receptor b, NKB receptor) (zebrafish); assay: cell-based or functional assay
T1 chain: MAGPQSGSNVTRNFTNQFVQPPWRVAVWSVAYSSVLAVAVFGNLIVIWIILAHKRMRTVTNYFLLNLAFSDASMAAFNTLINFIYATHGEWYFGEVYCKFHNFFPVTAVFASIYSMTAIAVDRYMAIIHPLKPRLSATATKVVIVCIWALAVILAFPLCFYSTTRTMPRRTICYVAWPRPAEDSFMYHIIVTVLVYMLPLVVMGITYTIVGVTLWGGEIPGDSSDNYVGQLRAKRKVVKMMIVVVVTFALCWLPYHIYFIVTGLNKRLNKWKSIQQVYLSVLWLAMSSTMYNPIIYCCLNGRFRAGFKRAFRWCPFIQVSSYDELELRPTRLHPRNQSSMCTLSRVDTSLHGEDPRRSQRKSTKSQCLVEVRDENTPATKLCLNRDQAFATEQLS

[6] = target: T2, human NK3R (human NKB receptor) (human, UniProt P29371 1-465); assay: cell-based or functional assay
T2 sequence (looked up): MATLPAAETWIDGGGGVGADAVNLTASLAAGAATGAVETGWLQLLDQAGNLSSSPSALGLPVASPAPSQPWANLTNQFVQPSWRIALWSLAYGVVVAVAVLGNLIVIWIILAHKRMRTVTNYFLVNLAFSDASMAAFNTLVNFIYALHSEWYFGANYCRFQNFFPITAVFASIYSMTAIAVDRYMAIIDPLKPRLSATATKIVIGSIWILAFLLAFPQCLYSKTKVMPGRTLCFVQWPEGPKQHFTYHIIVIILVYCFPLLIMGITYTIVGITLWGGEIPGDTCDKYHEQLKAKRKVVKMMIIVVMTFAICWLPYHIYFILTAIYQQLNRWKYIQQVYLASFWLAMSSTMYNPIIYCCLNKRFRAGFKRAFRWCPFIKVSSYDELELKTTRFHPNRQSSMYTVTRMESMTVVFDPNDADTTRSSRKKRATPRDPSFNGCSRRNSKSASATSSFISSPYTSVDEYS

[7] = target: T3, zebrafish Tac3ra (tac3 receptor a, NKB receptor) (zebrafish); assay: cell-based or functional assay
T3 chain: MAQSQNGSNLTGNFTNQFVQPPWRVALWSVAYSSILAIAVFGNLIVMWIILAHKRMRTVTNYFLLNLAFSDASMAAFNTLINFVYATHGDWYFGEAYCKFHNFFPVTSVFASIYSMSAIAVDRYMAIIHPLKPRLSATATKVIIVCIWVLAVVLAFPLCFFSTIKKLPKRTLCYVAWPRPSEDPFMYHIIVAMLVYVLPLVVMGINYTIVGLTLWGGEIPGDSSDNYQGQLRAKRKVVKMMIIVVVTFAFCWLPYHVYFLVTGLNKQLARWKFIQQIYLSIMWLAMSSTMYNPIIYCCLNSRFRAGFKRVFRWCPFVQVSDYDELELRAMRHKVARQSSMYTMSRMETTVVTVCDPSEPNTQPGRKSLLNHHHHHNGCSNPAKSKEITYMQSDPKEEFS

[8] = target: T1, zebrafish Tac3rb (tac3 receptor b, NKB …); assay: cell-based or functional assay
[9] = target: T2, human NK3R (human NKB receptor); assay: cell-based or functional assay; remark: listed apart in the source
[10] = target: T3, zebrafish Tac3ra (tac3 receptor a, NKB …); assay: cell-based or functional assay
[11] = target: T1, zebrafish Tac3rb (tac3 receptor b, NKB …); assay: cell-based or functional assay
[12] = target: T2, human NK3R (human NKB receptor); assay: cell-based or functional assay; remark: listed apart in the source
[13] = target: T3, zebrafish Tac3ra (tac3 receptor a, NKB …); assay: cell-based or functional assay

Row | Molecule | EC50 ([1]; Table 5, COS-7 cells, CRE-Luc follows PKA activation, read-out: EC50 CRE-Luc zfTac3ra) | EC50 ([1]; Table 6 (native peptides and analogues), PKA activation, read-out: EC50 using CRE-Luc, zfTac3ra) | EC50 ([2]; Table 5, COS-7 cells, CRE-Luc follows PKA activation, read-out: EC50 CRE-Luc zfTac3rb) | EC50 ([2]; Table 6 (native peptides and analogues), PKA activation, read-out: EC50 using CRE-Luc, zfTac3rb) | EC50 ([3]; Table 5, COS-7 cells, SRE-Luc follows PKC activation, read-out: EC50 SRE-Luc zfTac3ra) | EC50 ([3]; Table 7 (native peptides and analogues), PKC activation, read-out: EC50 using SRE, zfTac3ra) | EC50 ([4]; Table 5, COS-7 cells, SRE-Luc follows PKC activation, read-out: EC50 SRE-Luc zfTac3rb) | EC50 ([4]; Table 7 (native peptides and analogues), PKC activation, read-out: EC50 using SRE, zfTac3rb) | EC50, CRE-Luc reporter (PKA activation), transfected COS-7 cells [5] | EC50, SRE-Luc reporter (PKC activation), transfected COS-7 cells [5] | EC50, CRE-Luc reporter (PKA activation), transfected COS-7 cells [6] | EC50, SRE-Luc reporter (PKC activation), transfected COS-7 cells [6] | EC50, CRE-Luc reporter (PKA activation), transfected COS-7 cells [7] | EC50, SRE-Luc reporter (PKC activation), transfected COS-7 cells [7] | EC50, CRE-Luc to follow PKA activation, transfected COS-7 cells [8] | EC50, CRE-Luc to follow PKA activation, transfected COS-7 cells [9] | EC50, CRE-Luc to follow PKA activation, transfected COS-7 cells [10] | EC50, SRE reporter gene that follows PKC activation, transfected COS-7 cells [11] | EC50, SRE reporter gene that follows PKC activation, transfected COS-7 cells [12] | EC50, SRE reporter gene that follows PKC activation, transfected COS-7 cells [13]
1 | CSCC[C@H](NC(=O)[C@H](CC(C)C)NC(=O)CNC(=O)[C@@H](NC(=O)[C@H](Cc1ccccc1)NC(=O)[C@H](Cc1ccccc1)NC(=O)[C@H](CC(=O)O)NC(=O)[C@H](Cc1c[nH]cn1)NC(=O)[C@H](CCSC)NC(=O)[C@@H](N)CC(=O)O)C(C)C)C(N)=O [huNKB, reference compound] | 12.9 ± 13.3 nM | 12.9 ± 13.3 nM | 8.12 ± 1.56 nM | 8.12 ± 1.56 nM | 2.2 ± 1.49 nM | 2.2 ± 1.49 nM | 0.82 ± 0.16 nM | 0.82 ± 0.16 nM | – | – | – | – | – | – | – | – | – | – | – | –
2 | B1 | – | – | – | – | – | – | – | – | 4.55 nM | 1.47 nM | 3.73 nM | 0.49 nM | 5.75 nM | 0.5 nM | 16.4 nM | 6.64 nM | 4.75 nM | 26.1 nM | 0.49 nM | 0.62 nM
3 | B2 | – | – | – | – | – | – | – | – | 20.1 nM | 2.72 nM | – | – | 49 nM | 2.67 nM | 20.1 nM | – | 49 nM | 2.72 nM | – | 2.68 nM
4 | B3 | – | – | – | – | – | – | – | – | – | – | – | – | – | – | 11.9 nM | 16.8 nM | 6.94 nM | 0.29 nM | 3.44 nM | 0.15 nM
5 | B4 | – | – | – | – | – | – | – | – | 8.12 nM | 0.82 nM | – | – | 12.9 nM | 2.2 nM | 8.12 nM | – | 12.9 nM | 0.82 nM | – | 2.2 nM
6 | B5 | – | – | – | – | – | – | – | – | – | – | – | – | – | – | 7.75 nM | 7.33 nM | 9.14 nM | 0.54 nM | 0.71 nM | 0.31 nM
7 | B6 | – | – | – | – | – | – | – | – | – | – | – | – | – | – | 2.18 nM | 2.19 nM | 1.68 nM | 0.23 nM | 0.94 nM | 0.06 nM
